The values that follow are results of earlier work, collected in PMC5427998 (Chemical Science, 2017).

Bridges are numbered along the chain shown (N, C = ends). Where no end group is shown, it is not given here.

For this data set the following is noted: 95 °C.

“Microcin J25 (GGAGHVPEYFVGIGTPISFYG; lactam N-8; UniProt Q9X2V7 38-58, looked up) [MccJ25]”: the “thermal denaturation / retention of threaded structure” value is “did not denature”.
